From patent publication EP0751225B1, “Process for the identification of proteolytic activities and/or inhibitors thereof” (TECNOGEN S.C.P.A., priority 1990, dated 1992)

Target: T1, ET [16-29] (Homo sapiens, UniProt P05305)
T1 construct: made in house; host or cells: chemical solid-phase peptide synthesis (Fmoc)
Test: Capacity of affinity chromatography columns prepared with the immobilized peptides (retention of injected ET [16-29])
Format: binding
Conditions: 500 microlitres of ET [16-29] at 1 mg/ml injected; peptide immobilized on EUPERGIT C30 N; 0.1 M TRIS HCL pH 6.8, 1 ml/min
Description: The peptides Δ ET [16-29] and 8 Δ ET [16-29] have immobilized on a support previously activated through the introduction of epoxide groups (EUPERGIT C30 N), employing the same peptide/support ratio. The peptides 8 Δ ET [16-29] (2 mg) and Δ ET [16-29] (2 mg) have been dissolved separately in 10 ml of 0.1 M […], 0.5 M NaCl, pH 8.5, and added separately to two aliquots of 1 g of EUPERGIT C30 N. The mixtures have been incubated for 24 hours under stirring at room temperature. The introduction of the peptides within the resin has been followed by means of RP-HPLC, and after 24 hours an amount of about 80 % of the peptide initially present in the two preparations turned out to be covalently linked to the support. Such incorporation percentage has been then confirmed by analysis of amino acids, which analysis were carried out on weighed amounts of the two derivatized resins.
The two derivatized peptide supports were employed for filling two glass columns for affinity chromatography (80 x 6.6 mm I.D., total volume 2.3 ml) that were equilibrated with 0.1 M TRIS* HCL, at pH 6.8 and with a flowrate of 1 ml/min. The eluent was continuously monitored by means of optical absorption determinations at 280 nm wavelength. For determining the capacity of the columns, 500 microlitres of ET [16-29] dissolved at a concentration of 1 mg/ml in the elution buffer were injected. […]

injected material retained by the column: 50%
Sequence: RKFLAGLRARRLKF [Δ ET [16-29]]
